Assays:
Experiment in all cases: crystal structure; disulfide cross-linked CA hexamers, hanging- or sitting-drop vapour diffusion, data at 100 K, molecular replacement with PDB 3H47
[1] = target: HIV-1(M-group) CA Q50Y hexamer (A14C, E45C, Q50Y, W184A, M185A) (HIV-1 group M)
[2] = target: HIV-1(O-group) CA hexamer (A14C, E45C, W185A, M186A) (HIV-1 group O)
[3] = target: SIVcpz CA hexamer (P14C, E45C, W184A, M185A) (SIVcpzPtt (SIV of central chimpanzees))
[4] = target: SIVmac CA hexamer (P13C, E44C, W182A, M183A) (SIVmac (SIV from macaques))

HIV-1(M-group) CA Q50Y hexamer (A14C, E45C, Q50Y, W184A, M185A) (natural protein)
stoichiometry N [1]: 6

HIV-1(O-group) CA hexamer (A14C, E45C, W185A, M186A) (natural protein)
stoichiometry N [2]: 6

SIVcpz CA hexamer (P14C, E45C, W184A, M185A) (natural protein)
stoichiometry N [3]: 6

SIVmac CA hexamer (P13C, E44C, W182A, M183A) (natural protein)
stoichiometry N [4]: 6

Reference: PMC9613477
